For 1 molecule, Kd results are on record in publication PMC6220978, “Induced conformational changes activate the peptidoglycan synthase PBP1B” (Molecular Microbiology, 2018).

What all share (assay): SPR; PBP1B versions immobilised to the chip surface; LpoB injected from 19.5 nM to 10 μM; apparent KD by non-linear regression, at least three independent experiments
Common to all, as to details: both partners purified
(SPR reads the build-up and loss of mass on a sensor chip optically.)

One assay addresses T1, PBP1B D443A (E. coli, UniProt P02919 46-844, D443A).
T1 construct: PBP1B, E. coli, residues 46-844, made by mutagenesis of pDML924; source: E. coli BL21(DE3), purified (membrane extract, HisTrap, thrombin, HiTrap SP ion exchange)
T1 sequence (looked up): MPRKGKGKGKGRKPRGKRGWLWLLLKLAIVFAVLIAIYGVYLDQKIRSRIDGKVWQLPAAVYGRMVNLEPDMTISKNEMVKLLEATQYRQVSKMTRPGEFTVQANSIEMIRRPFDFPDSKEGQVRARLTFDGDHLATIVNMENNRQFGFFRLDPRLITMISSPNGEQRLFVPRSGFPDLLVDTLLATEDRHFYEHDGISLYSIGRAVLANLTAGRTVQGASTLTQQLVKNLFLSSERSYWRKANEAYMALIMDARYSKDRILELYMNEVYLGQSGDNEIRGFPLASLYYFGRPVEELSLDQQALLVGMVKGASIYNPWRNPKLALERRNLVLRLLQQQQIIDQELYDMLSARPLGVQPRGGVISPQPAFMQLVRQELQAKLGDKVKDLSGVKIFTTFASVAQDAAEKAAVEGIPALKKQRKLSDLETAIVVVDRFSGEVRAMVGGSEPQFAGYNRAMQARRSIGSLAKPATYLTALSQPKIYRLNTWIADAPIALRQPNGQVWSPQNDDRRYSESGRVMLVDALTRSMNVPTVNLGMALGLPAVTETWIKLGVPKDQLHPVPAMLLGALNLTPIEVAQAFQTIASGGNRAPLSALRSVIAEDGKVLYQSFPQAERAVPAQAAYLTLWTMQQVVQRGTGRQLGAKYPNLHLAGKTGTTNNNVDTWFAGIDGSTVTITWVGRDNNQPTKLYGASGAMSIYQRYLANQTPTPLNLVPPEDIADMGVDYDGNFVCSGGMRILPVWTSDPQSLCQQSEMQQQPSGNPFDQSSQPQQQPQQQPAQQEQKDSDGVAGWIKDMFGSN

The next assay addresses T2, PBP1B P162C/I644C (E. coli, UniProt P02919 46-844, P162C | I644C).
T2 construct: PBP1B, E. coli, residues 46-844, made by mutagenesis of pDML924; Disulphide bridge between C162 and C644 (no free thiol groups detected); reduced in the SPR assay with 2 mM TCEP; source: E. coli BL21(DE3), purified (membrane extract, HisTrap, thrombin, HiTrap SP ion exchange)
T2 sequence (looked up): T1 sequence (looked up) with P117C, A398D, I599C

Another assay addresses T3, PBP1B R157A (E. coli, UniProt P02919 46-844, R157A).
T3 construct: PBP1B, E. coli, residues 46-844, made by mutagenesis of pDML924; source: E. coli BL21(DE3), purified (membrane extract, HisTrap, thrombin, HiTrap SP ion exchange)
T3 sequence (looked up): T1 sequence (looked up) with R112A, A398D

Positions count from the first letter of the chain named.

B1: LpoB (natural protein, E. coli)
chain: VGQREPAPVEEVKPAPEQPAEPQQPVPTVPSVPTIPQQPGPIEHEDQTAPPAPHIRHYDWNGAMQPMVSKMLGADGVTAGSVLLVDSVNNRTNGSLNAAEATETLRNALANNGKFTLVSAQQLSMAKQQLGLSPQDSLGTRSKAIGIARNVGAHYVLYSSASGNVNAPTLQMQLMLVQTGEIIWSGKGAVSQQ
notes: LpoB, E. coli; also called lipoprotein LpoB; source: E. coli BL21(DE3), purified (HisTrap, Superdex 200), as in Egan et al. 2014
Regarding B1, the Kd was found to be 289 nM with PBP1B D443A, 213 nM with PBP1B P162C/I644C and 505 nM with PBP1B R157A.
